Assay results as given in patent publication US20140357577A1, “HIV Membrane Fusion Inhibitors” (priority 2011, published 2014).
Starred links: 1 amine or outer side, 2 acyl side, 3 side chain; linkers in the order of their positions; H or OH if unused. Positions of bridges follow the written chain, without caps; N, C: chain ends. pXylylene = c1cc(C[*:2])ccc1C[*:1]; Suc = O=C(CCC(=O)[*:2])[*:1]

B1: peptide 68 (peptide)
peptide: Ac-ACYAACIEALIRAAQEQQEKNEAALR-NH2
modifications: linker 2-6 via pXylylene
SMILES: CC[C@H](C)[C@H](NC(=O)[C@H](CC(C)C)NC(=O)[C@H](C)NC(=O)[C@H](CCC(=O)O)NC(=O)[C@@H](NC(=O)[C@@H]1CSCc2ccc(cc2)CSC[C@H](NC(=O)[C@H](C)NC(C)=O)C(=O)N[C@@H](Cc2ccc(O)cc2)C(=O)N[C@@H](C)C(=O)N[C@@H](C)C(=O)N1)[C@@H](C)CC)C(=O)N[C@@H](CCCNC(=N)N)C(=O)N[C@@H](C)C(=O)N[C@@H](C)C(=O)N[C@@H](CCC(N)=O)C(=O)N[C@@H](CCC(=O)O)C(=O)N[C@@H](CCC(N)=O)C(=O)N[C@@H](CCC(N)=O)C(=O)N[C@@H](CCC(=O)O)C(=O)N[C@@H](CCCCN)C(=O)N[C@@H](CC(N)=O)C(=O)N[C@@H](CCC(=O)O)C(=O)N[C@@H](C)C(=O)N[C@@H](C)C(=O)N[C@@H](CC(C)C)C(=O)N[C@@H](CCCNC(=N)N)C(N)=O
B2: peptide 62 (peptide)
peptide: Ac-ACYVACIEALIRAAQEQQEKNEAALR-NH2
modifications: linker 2-6 via pXylylene
SMILES: CC[C@H](C)[C@H](NC(=O)[C@H](CC(C)C)NC(=O)[C@H](C)NC(=O)[C@H](CCC(=O)O)NC(=O)[C@@H](NC(=O)[C@@H]1CSCc2ccc(cc2)CSC[C@H](NC(=O)[C@H](C)NC(C)=O)C(=O)N[C@@H](Cc2ccc(O)cc2)C(=O)N[C@@H](C(C)C)C(=O)N[C@@H](C)C(=O)N1)[C@@H](C)CC)C(=O)N[C@@H](CCCNC(=N)N)C(=O)N[C@@H](C)C(=O)N[C@@H](C)C(=O)N[C@@H](CCC(N)=O)C(=O)N[C@@H](CCC(=O)O)C(=O)N[C@@H](CCC(N)=O)C(=O)N[C@@H](CCC(N)=O)C(=O)N[C@@H](CCC(=O)O)C(=O)N[C@@H](CCCCN)C(=O)N[C@@H](CC(N)=O)C(=O)N[C@@H](CCC(=O)O)C(=O)N[C@@H](C)C(=O)N[C@@H](C)C(=O)N[C@@H](CC(C)C)C(=O)N[C@@H](CCCNC(=N)N)C(N)=O
B3: peptide 63 (peptide)
peptide: Ac-ACYWACIEALIRAAQEQQEKNEAALR-NH2
modifications: linker 2-6 via pXylylene
SMILES: CC[C@H](C)[C@H](NC(=O)[C@H](CC(C)C)NC(=O)[C@H](C)NC(=O)[C@H](CCC(=O)O)NC(=O)[C@@H](NC(=O)[C@@H]1CSCc2ccc(cc2)CSC[C@H](NC(=O)[C@H](C)NC(C)=O)C(=O)N[C@@H](Cc2ccc(O)cc2)C(=O)N[C@@H](Cc2c[nH]c3ccccc23)C(=O)N[C@@H](C)C(=O)N1)[C@@H](C)CC)C(=O)N[C@@H](CCCNC(=N)N)C(=O)N[C@@H](C)C(=O)N[C@@H](C)C(=O)N[C@@H](CCC(N)=O)C(=O)N[C@@H](CCC(=O)O)C(=O)N[C@@H](CCC(N)=O)C(=O)N[C@@H](CCC(N)=O)C(=O)N[C@@H](CCC(=O)O)C(=O)N[C@@H](CCCCN)C(=O)N[C@@H](CC(N)=O)C(=O)N[C@@H](CCC(=O)O)C(=O)N[C@@H](C)C(=O)N[C@@H](C)C(=O)N[C@@H](CC(C)C)C(=O)N[C@@H](CCCNC(=N)N)C(N)=O
B4: peptide 61 (peptide)
peptide: Ac-ACYFACIEALIRAAQEQQEKNEAALR-NH2
modifications: linker 2-6 via pXylylene
SMILES: CC[C@H](C)[C@H](NC(=O)[C@H](CC(C)C)NC(=O)[C@H](C)NC(=O)[C@H](CCC(=O)O)NC(=O)[C@@H](NC(=O)[C@@H]1CSCc2ccc(cc2)CSC[C@H](NC(=O)[C@H](C)NC(C)=O)C(=O)N[C@@H](Cc2ccc(O)cc2)C(=O)N[C@@H](Cc2ccccc2)C(=O)N[C@@H](C)C(=O)N1)[C@@H](C)CC)C(=O)N[C@@H](CCCNC(=N)N)C(=O)N[C@@H](C)C(=O)N[C@@H](C)C(=O)N[C@@H](CCC(N)=O)C(=O)N[C@@H](CCC(=O)O)C(=O)N[C@@H](CCC(N)=O)C(=O)N[C@@H](CCC(N)=O)C(=O)N[C@@H](CCC(=O)O)C(=O)N[C@@H](CCCCN)C(=O)N[C@@H](CC(N)=O)C(=O)N[C@@H](CCC(=O)O)C(=O)N[C@@H](C)C(=O)N[C@@H](C)C(=O)N[C@@H](CC(C)C)C(=O)N[C@@H](CCCNC(=N)N)C(N)=O
B5: peptide 64 (peptide)
peptide: Ac-ACYAACIEALIRAAQEQQEKNEAALR-NH2
modifications: linker 2-6 via ortho‑xylene
B6: peptide 65 (peptide)
peptide: Ac-ACYAACIEALIRAAQEQQEKNEAALR-NH2
modifications: linker 2-6 via meta‑xylene
B7: peptide 66 (peptide)
peptide: Ac-ACYAACIEALIRAAQEQQEKNEAALR-NH2
modifications: linker 2-6 via 2,7‑dimethylnaphthyl
B8: peptide 67 (peptide)
peptide: Suc-ACYAACIEALIRAAQEQQEKNEAALR-NH2
modifications: linker 2-6 via pXylylene
SMILES: CC[C@H](C)[C@H](NC(=O)[C@H](CC(C)C)NC(=O)[C@H](C)NC(=O)[C@H](CCC(=O)O)NC(=O)[C@@H](NC(=O)[C@@H]1CSCc2ccc(cc2)CSC[C@H](NC(=O)[C@H](C)NC(=O)CCC(=O)O)C(=O)N[C@@H](Cc2ccc(O)cc2)C(=O)N[C@@H](C)C(=O)N[C@@H](C)C(=O)N1)[C@@H](C)CC)C(=O)N[C@@H](CCCNC(=N)N)C(=O)N[C@@H](C)C(=O)N[C@@H](C)C(=O)N[C@@H](CCC(N)=O)C(=O)N[C@@H](CCC(=O)O)C(=O)N[C@@H](CCC(N)=O)C(=O)N[C@@H](CCC(N)=O)C(=O)N[C@@H](CCC(=O)O)C(=O)N[C@@H](CCCCN)C(=O)N[C@@H](CC(N)=O)C(=O)N[C@@H](CCC(=O)O)C(=O)N[C@@H](C)C(=O)N[C@@H](C)C(=O)N[C@@H](CC(C)C)C(=O)N[C@@H](CCCNC(=N)N)C(N)=O
B9: peptide 3 (peptide)
peptide: Suc-ANYAALIEALIRAAQEQQEKNEAALR-NH2
SMILES: CC[C@H](C)[C@H](NC(=O)[C@H](CC(C)C)NC(=O)[C@H](C)NC(=O)[C@H](CCC(=O)O)NC(=O)[C@@H](NC(=O)[C@H](CC(C)C)NC(=O)[C@H](C)NC(=O)[C@H](C)NC(=O)[C@H](Cc1ccc(O)cc1)NC(=O)[C@H](CC(N)=O)NC(=O)[C@H](C)NC(=O)CCC(=O)O)[C@@H](C)CC)C(=O)N[C@@H](CCCNC(=N)N)C(=O)N[C@@H](C)C(=O)N[C@@H](C)C(=O)N[C@@H](CCC(N)=O)C(=O)N[C@@H](CCC(=O)O)C(=O)N[C@@H](CCC(N)=O)C(=O)N[C@@H](CCC(N)=O)C(=O)N[C@@H](CCC(=O)O)C(=O)N[C@@H](CCCCN)C(=O)N[C@@H](CC(N)=O)C(=O)N[C@@H](CCC(=O)O)C(=O)N[C@@H](C)C(=O)N[C@@H](C)C(=O)N[C@@H](CC(C)C)C(=O)N[C@@H](CCCNC(=N)N)C(N)=O

Each binder was assayed against gp41 of HIV-1 strain HXB2D with mutation V38A (HIV-1 strain HXB2D, UniProt P04578) (assay: cell-based or functional assay).

Point of comparison: B3, “fold change in EC50, HIV-HXB2D V38A mutant” value 22 fold. Against it:
- B1 — lower, 21 fold
- B2 — lower, 15 fold
- B4 — lower, 20 fold
- B5 — lower, 15 fold
- B6 — lower, 16 fold
- B7 — higher, 66 fold
- B8 — higher, 30 fold
- B9 — higher, 74 fold
